For one molecule, Kd, koff and kon results are on record in US20160346402A1.

This assay concerns the target TPP-2305, hTNFRSF12 amino acids a28-80 (recombinant human TWEAKR protein) (human) (UniProt Q9NP84). Nature of the assay: SPR (Biacore T100), antibody captured, TWEAKR TPP-2305 as analyte, 1:1 model. (In general: Surface plasmon resonance follows binding to a sensor surface in real time, without labels.)

B1: ITEM-1 (antibody, from another filing, V domains shown)
VH: EVKLEESGGGLVQPGGSMKLSCVASGFSFSNYWMNWVRQSPEKGLEWVAEIRLKSNNYATHYAESVKGRFTISRHDSKSSVYLQMNNLRAEDTGIYYCTRAYADYFDYWGQGTTLTVSS
VL: DIVLTQSPASLVVSLGQRATISCRASQSVSTSTYSYMHWYQQKPGQPPKILIKYASNLESGVPARFSGSGSGTDFTLNIHPVEEEDTATYYCQHSWEIPYTFGGGTKLEIKR
Take B1: the Kd was 2.9 nM, the koff was 0.011 s⁻¹ and the on-rate constant (kon) was determined as 3.8e+06 M⁻¹ s⁻¹.

What is called Kd is the free concentration of one partner at which half of the binding sites on the other are occupied at equilibrium, for simple one-to-one binding. In general, koff refers to a measure of how fast the partners let go of each other. What is called kon is the second-order rate constant of association.
